Data published in patent US20180273587A1 (AILERON THERAPEUTICS, published 2018).
Starred links: 1 amine or outer side, 2 acyl side, 3 side chain; linkers in the order of their positions; H or OH if unused. Positions of bridges follow the written chain, without caps; N, C: chain ends. Non-standard residues stand in square brackets, D forms with d. Gly(1-adamantyl) = N[C@H](C(=O)O)C12CC3CC(CC(C3)C1)C2; hhL = hhLeu, CC(C)CCC[C@H](N[*:1])C(=O)[*:2]; hCha = N[C@@H](CCC1CCCCC1)C(=O)O; hPhe = N[C@@H](CCc1ccccc1)C(=O)O; R8 = C=CCCCCCC[C@@](C)(N)C(=O)O; Cha = N[C@@H](CC1CCCCC1)C(=O)O; S5 = C=CCCC[C@](C)(N)C(=O)O

B1: SEQ ID NO: 1672 (peptide)
peptide: Ac-IWFAQALR[R8]IGDQFN[S5]YYA-NH2
modifications: staple 9-16
SMILES: CC[C@H](C)[C@H](NC(C)=O)C(=O)N[C@@H](Cc1c[nH]c2ccccc12)C(=O)N[C@@H](Cc1ccccc1)C(=O)N[C@@H](C)C(=O)N[C@@H](CCC(N)=O)C(=O)N[C@@H](C)C(=O)N[C@@H](CC(C)C)C(=O)N[C@@H](CCCNC(=N)N)C(=O)N[C@]1(C)CCCCCCC=CCCC[C@@](C)(C(=O)N[C@@H](Cc2ccc(O)cc2)C(=O)N[C@@H](Cc2ccc(O)cc2)C(=O)N[C@@H](C)C(N)=O)NC(=O)[C@H](CC(N)=O)NC(=O)[C@H](Cc2ccccc2)NC(=O)[C@H](CCC(N)=O)NC(=O)[C@H](CC(=O)O)NC(=O)CNC(=O)[C@H]([C@@H](C)CC)NC1=O
B2: SEQ ID NO: 1679 (peptide)
peptide: Ac-IW[Gly(1-adamantyl)]AQALR[R8]IGDAFN[S5]YYA-NH2
modifications: staple 9-16
SMILES: CC[C@H](C)[C@H](NC(C)=O)C(=O)N[C@@H](Cc1c[nH]c2ccccc12)C(=O)N[C@H](C(=O)N[C@@H](C)C(=O)N[C@@H](CCC(N)=O)C(=O)N[C@@H](C)C(=O)N[C@@H](CC(C)C)C(=O)N[C@@H](CCCNC(=N)N)C(=O)N[C@]1(C)CCCCCCC=CCCC[C@@](C)(C(=O)N[C@@H](Cc2ccc(O)cc2)C(=O)N[C@@H](Cc2ccc(O)cc2)C(=O)N[C@@H](C)C(N)=O)NC(=O)[C@H](CC(N)=O)NC(=O)[C@H](Cc2ccccc2)NC(=O)[C@H](C)NC(=O)[C@H](CC(=O)O)NC(=O)CNC(=O)[C@H]([C@@H](C)CC)NC1=O)C12CC3CC(CC(C3)C1)C2
notes: also called Ac-IWAdmAQALR$r8IGDAFN$YYA-NH2
B3: SEQ ID NO: 1681 (peptide)
peptide: Ac-IW[hPhe]AQALR[R8]IGDAFN[S5]YYA-NH2
modifications: staple 9-16
SMILES: CC[C@H](C)[C@H](NC(C)=O)C(=O)N[C@@H](Cc1c[nH]c2ccccc12)C(=O)N[C@@H](CCc1ccccc1)C(=O)N[C@@H](C)C(=O)N[C@@H](CCC(N)=O)C(=O)N[C@@H](C)C(=O)N[C@@H](CC(C)C)C(=O)N[C@@H](CCCNC(=N)N)C(=O)N[C@]1(C)CCCCCCC=CCCC[C@@](C)(C(=O)N[C@@H](Cc2ccc(O)cc2)C(=O)N[C@@H](Cc2ccc(O)cc2)C(=O)N[C@@H](C)C(N)=O)NC(=O)[C@H](CC(N)=O)NC(=O)[C@H](Cc2ccccc2)NC(=O)[C@H](C)NC(=O)[C@H](CC(=O)O)NC(=O)CNC(=O)[C@H]([C@@H](C)CC)NC1=O
notes: also called Ac-IWhFAQALR$r8IGDAFN$YYA-NH2
B4: SEQ ID NO: 1676 (peptide)
peptide: Ac-IWIAQALR[R8]IGDQFA[S5]YYA-NH2
modifications: staple 9-16
SMILES: CC[C@H](C)[C@H](NC(C)=O)C(=O)N[C@@H](Cc1c[nH]c2ccccc12)C(=O)N[C@H](C(=O)N[C@@H](C)C(=O)N[C@@H](CCC(N)=O)C(=O)N[C@@H](C)C(=O)N[C@@H](CC(C)C)C(=O)N[C@@H](CCCNC(=N)N)C(=O)N[C@]1(C)CCCCCCC=CCCC[C@@](C)(C(=O)N[C@@H](Cc2ccc(O)cc2)C(=O)N[C@@H](Cc2ccc(O)cc2)C(=O)N[C@@H](C)C(N)=O)NC(=O)[C@H](C)NC(=O)[C@H](Cc2ccccc2)NC(=O)[C@H](CCC(N)=O)NC(=O)[C@H](CC(=O)O)NC(=O)CNC(=O)[C@H]([C@@H](C)CC)NC1=O)[C@@H](C)CC
B5: SEQ ID NO: 1677 (peptide)
peptide: Ac-IW[Cha]AQALR[R8]IGDAFN[S5]YYA-NH2
modifications: staple 9-16
SMILES: CC[C@H](C)[C@H](NC(C)=O)C(=O)N[C@@H](Cc1c[nH]c2ccccc12)C(=O)N[C@@H](CC1CCCCC1)C(=O)N[C@@H](C)C(=O)N[C@@H](CCC(N)=O)C(=O)N[C@@H](C)C(=O)N[C@@H](CC(C)C)C(=O)N[C@@H](CCCNC(=N)N)C(=O)N[C@]1(C)CCCCCCC=CCCC[C@@](C)(C(=O)N[C@@H](Cc2ccc(O)cc2)C(=O)N[C@@H](Cc2ccc(O)cc2)C(=O)N[C@@H](C)C(N)=O)NC(=O)[C@H](CC(N)=O)NC(=O)[C@H](Cc2ccccc2)NC(=O)[C@H](C)NC(=O)[C@H](CC(=O)O)NC(=O)CNC(=O)[C@H]([C@@H](C)CC)NC1=O
notes: also called Ac-IWChaAQALR$r8IGDAFN$YYA-NH2
B6: SEQ ID NO: 1678 (peptide)
peptide: Ac-IW[hhL]AQALR[R8]IGDAFN[S5]YYA-NH2
modifications: staple 9-16
SMILES: CC[C@H](C)[C@H](NC(C)=O)C(=O)N[C@@H](Cc1c[nH]c2ccccc12)C(=O)N[C@@H](CCCC(C)C)C(=O)N[C@@H](C)C(=O)N[C@@H](CCC(N)=O)C(=O)N[C@@H](C)C(=O)N[C@@H](CC(C)C)C(=O)N[C@@H](CCCNC(=N)N)C(=O)N[C@]1(C)CCCCCCC=CCCC[C@@](C)(C(=O)N[C@@H](Cc2ccc(O)cc2)C(=O)N[C@@H](Cc2ccc(O)cc2)C(=O)N[C@@H](C)C(N)=O)NC(=O)[C@H](CC(N)=O)NC(=O)[C@H](Cc2ccccc2)NC(=O)[C@H](C)NC(=O)[C@H](CC(=O)O)NC(=O)CNC(=O)[C@H]([C@@H](C)CC)NC1=O
notes: also called Ac-IWhhLAQALR$r8IGDAFN$YYA-NH2
B7: SEQ ID NO: 1674 (peptide)
peptide: Ac-IWIAQALR[R8]IGNAFN[S5]YYA-NH2
modifications: staple 9-16
SMILES: CC[C@H](C)[C@H](NC(C)=O)C(=O)N[C@@H](Cc1c[nH]c2ccccc12)C(=O)N[C@H](C(=O)N[C@@H](C)C(=O)N[C@@H](CCC(N)=O)C(=O)N[C@@H](C)C(=O)N[C@@H](CC(C)C)C(=O)N[C@@H](CCCNC(=N)N)C(=O)N[C@]1(C)CCCCCCC=CCCC[C@@](C)(C(=O)N[C@@H](Cc2ccc(O)cc2)C(=O)N[C@@H](Cc2ccc(O)cc2)C(=O)N[C@@H](C)C(N)=O)NC(=O)[C@H](CC(N)=O)NC(=O)[C@H](Cc2ccccc2)NC(=O)[C@H](C)NC(=O)[C@H](CC(N)=O)NC(=O)CNC(=O)[C@H]([C@@H](C)CC)NC1=O)[C@@H](C)CC
B8: SEQ ID NO: 1680 (peptide)
peptide: Ac-IW[hCha]AQALR[R8]IGDAFN[S5]YYA-NH2
modifications: staple 9-16
SMILES: CC[C@H](C)[C@H](NC(C)=O)C(=O)N[C@@H](Cc1c[nH]c2ccccc12)C(=O)N[C@@H](CCC1CCCCC1)C(=O)N[C@@H](C)C(=O)N[C@@H](CCC(N)=O)C(=O)N[C@@H](C)C(=O)N[C@@H](CC(C)C)C(=O)N[C@@H](CCCNC(=N)N)C(=O)N[C@]1(C)CCCCCCC=CCCC[C@@](C)(C(=O)N[C@@H](Cc2ccc(O)cc2)C(=O)N[C@@H](Cc2ccc(O)cc2)C(=O)N[C@@H](C)C(N)=O)NC(=O)[C@H](CC(N)=O)NC(=O)[C@H](Cc2ccccc2)NC(=O)[C@H](C)NC(=O)[C@H](CC(=O)O)NC(=O)CNC(=O)[C@H]([C@@H](C)CC)NC1=O
notes: also called Ac-IWhChaAQALR$r8IGDAFN$YYA-NH2

Columns and labels:
Assay in all cases: Ki table, method not stated
MCL-1 = target: T1, MCL-1 (UniProt Q07820 172-327, limits assumed)
T1 construct: also called Myeloid cell leukemia 1
T1 sequence (Q07820 172-327 limits assumed): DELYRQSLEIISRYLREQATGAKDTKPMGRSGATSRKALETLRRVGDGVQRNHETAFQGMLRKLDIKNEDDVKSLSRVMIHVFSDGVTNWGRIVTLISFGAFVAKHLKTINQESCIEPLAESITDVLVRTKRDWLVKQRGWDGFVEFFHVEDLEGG

BCL-XL = BCL-XL (UniProt Q07817 1-209)
BCL-XL, sequence (Q07817 1-209): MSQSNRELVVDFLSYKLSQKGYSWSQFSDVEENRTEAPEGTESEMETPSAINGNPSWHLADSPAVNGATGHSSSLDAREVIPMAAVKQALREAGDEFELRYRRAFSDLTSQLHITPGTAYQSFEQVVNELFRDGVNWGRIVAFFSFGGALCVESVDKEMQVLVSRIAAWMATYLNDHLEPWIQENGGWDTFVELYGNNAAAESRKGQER

BCL-2 = BCL-2 (UniProt P10415 1-217, limits assumed)
BCL-2, sequence (P10415 1-217 limits assumed): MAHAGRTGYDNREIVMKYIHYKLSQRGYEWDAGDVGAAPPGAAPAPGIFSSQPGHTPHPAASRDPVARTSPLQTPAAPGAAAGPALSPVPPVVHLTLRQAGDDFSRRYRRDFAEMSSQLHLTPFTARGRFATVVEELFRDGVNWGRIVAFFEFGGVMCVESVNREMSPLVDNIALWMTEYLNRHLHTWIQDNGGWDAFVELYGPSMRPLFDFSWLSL

| Binder | Ki (MCL-1) [nM] | Ki (BCL-XL) [nM] | Ki (BCL-2) [nM] |
| --- | --- | --- | --- |
| B1 | 29.3 | 25.9 | 205 |
| B2 | 21.6 | 7.3 | 59 |
| B3 | 53.1 | 69.7 | 221 |
| B4 | 22.8 | 53.5 | 84.9 |
| B5 | 43.8 | 14.4 | 105 |
| B6 | 21.2 | 11.9 | 161 |
| B7 | 195 | 416 | 405 |
| B8 | 22.2 | 13.1 | 182 |
